These results are taken from PMC4091690, “A Broadly Conserved G-Protein-Coupled Receptor Kinase Phosphorylation Mechanism Controls Drosophila Smoothened Activity” (PLoS Genetics, 2014).

B1: Smo^core (Drosophila Smoothened amino acids 1-663), C-terminally tagged with GFP10 S634 [Drosophila] / Costal-2 (Cos2), C-terminally tagged with Renilla luciferase II … (parent)
chain 1: MEIPIQVAVRIFPHRELKDLLRSFGPTEPKKDAQAVDEGADSKDSEAQVPAAEKDNPSISETDPNGNAEQDSAADSKTIPDANGNDSGQKDYPDSAYCVQAIPISASALGLPSALPGGDPMDSIAAGLIQVGPHTVPVTHALPSSSSQEQVYHQTVFPLITLFLEGFDASVVTYGQRGQGKSYTLYGNVQDPTLTDSTEGVVQLCVRDIFSHISLHPERTYAINVGFVEICGGDVCDLLGMGNIHCTNVDAVFHWLQVGLSARQSLPAHTLFTLTLEQQWVSKEGLLQHRLSTASFSDLCGTERCGDQPPGRPLDAGLCMLEQVISTLTDPGLMYGVNGNIPYGQTTLTTLLKDSFGGRAQTLVILCVSPLEEHLPETLGNLQFAFKVQCVRNFVIMNTYSDDNTMIVQPAEPVPESNSSAGPLSQAGPGDNFGLQFAASQWSKLVTNAEGLFSKLIDSKLITEVEKEQIEEWLFLKQECEECLSSTEAMRQQKQLVPILEAEEPEDVNSEAANSESPNSDNENDTDNESHRPDLDDKIESLMEEFRDKTDALILEKHAEYLSKHPKAVMQSQDREIEAQPPEENGDDRKVSIGSRRRSVQPGASLSTAELAMLNRVASQQPPPPIDPESVVDPLESSSGEGIRQAALAAAAATAPIEQLQKKLRKLVAEIEGKQRQLREIEETIQVKQNIIAELVKNSDTRSHAKQRFHKKRAKLEAECDKAKKQLGKALVQGRDQSEIERWTTIIGHLERRLEDLSSMKHIAGESGQKVKKLQQSVGESRKQADDLQKKLRKECKLRCQMEAELAKLRESRETGKELVKAQGSPEQQGRQLKAVQARITHLNHILREKSDNLEEQPGPEQQETLRHEIRNLRGTRDLLLEERCHLDRKLKRDKVLTQKEERKLLECDEAIEAIDAAIEFKNEMITGHRSIDTSDRIQREKGEQMLMARLNRLSTEEMRTLLYKYFTKVIDLRDSSRKLELQLVQLERERDAWEWKERVLSNAVRQARLEGERNAVLLQRQHEMKLTLMLRHMAEETSASSASYGERALAPACVAPPVQASSDFDYDHFYKGGGNPSKALIKAPKPMPTGSALDKYKDKEQRSGRNIFAKFHVLTRYASAAAAGSSGSTAEESTALIESTTTATATTTSTTTTGAVGKVKDKALVSFRPEQLKRLMPAPTATKVTRQKNKIIIQDASRRN
chain 2: SSAKFGSTTPASAQQSDVELEPINGTLNYRLYAKKGRDDKPWFDGLDSRHIQCVRRARCYPTSNATNTCFGSKLPYELSSLDLTDFHTEKELNDKLNDYYALKHVPKCWAAIQPFLCAVFKPKCEKINGEDMVYLPSYEMCRITMEPCRILYNTTFFPKFLRCNETLFPTKCTNGARGMKFNGTGQCLSPLVPTDTSASYYPGIEGCGVRCKDPLYTDDEHRQIHKLIGWAGSICLLSNLFVVSTFFIDWKNANKYPAVIVFYINLCFLIACVGWLLQFTSGSREDIVCRKDGTLRHSEPTAGENLSCIVIFVLVYYFLTAGMVWFVFLTYAWHWRAMGHVQDRIDKKGSYFHLVAWSLPLVLTITTMAFSEVDGNSIVGICFVGYINHSMRAGLLLGPLCGVILIGGYFITRGMVMLFGLKHFANDIKSTSASNKIHLIIMRMGVCALLTLVFILVAIACHVTEFRHADEWAQSFRQFIICKISSVFEEKSSCRIENRPSVGVLQLHLLCLFSSGIVMSTWCWTPSSIETWKRYIRKKCGKEVVEEVKMPKHKVIAQTWAKRKDFEDKGRLSITLYNTHTDPVGLNFDVNDLNSSETNDISSTWAAYLPQCVKRRMALTGAATGNSSSHGP

The variants in the experiment derive from B1. Put plainly: BRET. Conditions: with Costal-2 (Cos2), S2 cells treated with smo 3′UTR dsRNA to deplete endogenous Smo, parent: 100, read off a plot. In general terms: In BRET a luciferase serves as donor, and the signal depends on an acceptor being close.
Take chain 2 S573A T575A T579A T581A S595A S596A T598A S602A S603A T604A T620A T624A S627A S628A S629A: the response worked out at 30.
